Columns and labels:
[1] = target: T1, Trx-HIS6-hTERT(1-200) (hTEN) (human, UniProt O14746 1-200); assay: competition EMSA
[2] = target: T1, Trx-HIS6-hTERT(1-200) (hTEN); assay: competition EMSA; remark: listed apart in the source
[3] = target: T1, Trx-HIS6-hTERT(1-200) (hTEN); assay: EMSA
[4] = target: Trx-HIS6-hTERT(1-200) Q169A (human, UniProt O14746 1-200, Q169A); assay: EMSA
[5] = target: Trx-HIS6-hTERT(1-200) Y18A (human, UniProt O14746 1-200, Y18A); assay: EMSA
[6] = target: Trx-HIS6-hTERT(1-200) T116A/T117A/S118A (human, UniProt O14746 1-200, T116A;T117A;S118A); assay: EMSA
Chain of Trx-HIS6-hTERT(1-200) T116A/T117A/S118A (O14746 1-200 T116A/T117A/S118A): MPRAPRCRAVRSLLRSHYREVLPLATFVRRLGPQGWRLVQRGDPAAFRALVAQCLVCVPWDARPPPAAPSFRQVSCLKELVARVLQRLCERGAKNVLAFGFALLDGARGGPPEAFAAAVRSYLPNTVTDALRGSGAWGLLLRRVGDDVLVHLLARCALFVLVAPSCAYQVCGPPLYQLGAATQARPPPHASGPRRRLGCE

[7] = target: T1, Trx-HIS6-hTERT(1-200) (hTEN); assay: competition EMSA; remark: listed apart in the source
[8] = target: T1, Trx-HIS6-hTERT(1-200) (hTEN); assay: competition EMSA; remark: listed apart in the source
[9] = target: T1, Trx-HIS6-hTERT(1-200) (hTEN); assay: competition EMSA; remark: listed apart in the source

T1 sequence (O14746 1-200): as the sequence (O14746 1-200 T116A/T117A/S118A) above, with A116T, A117T, A118S counted along it
Chain of Trx-HIS6-hTERT(1-200) Y18A (O14746 1-200 Y18A): as the sequence (O14746 1-200 T116A/T117A/S118A) above, with Y18A, A116T, A117T, A118S counted along it
Chain of Trx-HIS6-hTERT(1-200) Q169A (O14746 1-200 Q169A): as the sequence (O14746 1-200 T116A/T117A/S118A) above, with A116T, A117T, A118S, Q169A counted along it

Q: Does GTTAGGGTTAGGG (ssDNA) [IV] bind [1]?
A: Result: binds

Q: Does GGGTTAGGGTTAGGG (ssDNA) [III] bind [2]?
A: Result: binds

Q: Which results are given for TTAGGGTTAGGGTTAGGG (ssDNA) [(TTAGGG)3 / I]?
A: binding result [3]: binds; binding result [4]: binds; binding result [5]: binds; binding result [6]: binds

Q: TTAGGGTTAGCGTTAGGG (ssDNA) [I.C11] was tested. Which binding signal [7] did it give?
A: The binding signal was 7 fold lower apparent affinity vs I (relative IC50).

Q: Does GGTTATTATTAGG (ssDNA) [VI.TA6] bind [8]?
A: Result: binds

Q: Does GGTTAGGGTTAGG (ssDNA) [VI / (GGTTAG)2G] bind [9]?
A: Result: binds

Q: Does GGGTTAGGGTTAGGGTTA (ssDNA) [II] bind [2]?
A: Result: binds

Reference: PMC2847226
